From publication PMC9519043

Key:
[1] = test system: HRSV virus particle (Human respiratory syncytial virus strain A2 (ATCC VR-1540)); assay: microfluidic affinity capture, RT-qPCR; conditions: SPR (BIAcore T200, […], pH not stated
[2] = target: SARS-CoV-2 virus particle (S protein), native, patient saliva (SARS-CoV-2 (clinical isolates)) (UniProt P0DTC2); assay: microfluidic affinity capture, RT-qPCR; conditions: 5' amino C12 linker and TEG spacer 9; 3' inverted dT; SPR (BIAcore T200, […], pH not stated; chip capture from buffer or saliva at 20 ul/min

Row | Sequence | binding signal [1] [% recovery] | binding signal [2] [% recovery]
1 | TAGGGAAGAGAAGGACATATGATAGTGCGGTGAGCCGTCGGACATACAAATACTTGACTAGTACATGACCACTTGA [HRSV aptamer (Percze et al.), chip form] | 74.2 | 
2 | CAGCACCGACCTTGTGCTTTGGGAGTGCTGGTCCAAGGGCGTTAATGGACA [51-nt SARS-CoV-2 aptamer, chip form] |  | 94.7
